Article PMC7065593 (Nature, 2019)

Molecular target: Gαi1 subunit (human, UniProt P63096)
Test: cryo-EM structure

B1: hNTSR1(∆ICL3; residues 20-418, A85L, ∆282-291) (receptor)
chain: QRAQAGLEEALLAPGFGNASGNASERVLAAPSSELDVNTDIYSKVLVTAVYLALFVVGTVGNTVTLFTLARKKSLQSLQSTVHYHLGSLALSDLLTLLLAMPVELYNFIWVHHPWAFGDAGCRGYYFLRDACTYATALNVASLSVERYLAICHPFKAKTLMSRSRTKKFISAIWLASALLAVPMLFTMGEQNRSADGQHAGGLVCTPTIHTATVKVVIQVNTFMSFIFPMVVISVLNTIIANKLTVMVRQAAEQGQVCTVGGPGRVQALRHGVRVLRAVVIAFVVCWLPYHVRRLMFCYISDEQWTPFLYDFYHYFYMVTNALFYVSSTINPILYNLVSANFRHIFLATLACLCPVWRRRRKRPAFSRKADSVSSNHTLSSNATRETLY
B1: binds.
